According to paper PMC4253958:

Assays:
[1] = target: APPΔS622, N-terminally myc-tagged APP695 (human) (UniProt P05067)
[2] = target: APP-D8, N-terminally myc-tagged APP695 (human) (UniProt P05067)
[3] = target: APPΔF616, N-terminally myc-tagged APP695 (human) (UniProt P05067)

In the case of “APPΔS622, N-terminally myc-tagged APP695 (from UniProt P05067-4 18-695) (natural protein)”, the S2 cell aggregation assay: clustered transfected cells, compared to APPwt expressing cells [1] is reported as > 2 fold.
An S2 cell aggregation assay: clustered transfected cells, compared to APPwt expressing cells [2] of 2 fold was found for “APP-D8, N-terminally myc-tagged APP695 (from UniProt P05067-4 18-695) (natural protein)” in this work.
In the case of “APPΔF616, N-terminally myc-tagged APP695 (from UniProt P05067-4 18-695) (natural protein)”, the S2 cell aggregation assay: clustered transfected cells, compared to APPwt expressing cells [3] is reported as > 2 fold.
